Results reported in patent publication US20220348661A1 (HARBOUR BIOMED SHANGHAI, published 2022).

These binders were tested against T1, human CD3 (human, UniProt P07766 23-207; P09693 23-182; P04234 22-171; P20963 22-164) (assay: flow cytometry on human pan-T cells).
T1 construct: whole, on cells; SP34 is described as an anti-human CD3e antibody; also called human TCR/CD3 complex; CD3 on human pan-T cells
T1 sequence (P07766 23-207, chain 1 of 4): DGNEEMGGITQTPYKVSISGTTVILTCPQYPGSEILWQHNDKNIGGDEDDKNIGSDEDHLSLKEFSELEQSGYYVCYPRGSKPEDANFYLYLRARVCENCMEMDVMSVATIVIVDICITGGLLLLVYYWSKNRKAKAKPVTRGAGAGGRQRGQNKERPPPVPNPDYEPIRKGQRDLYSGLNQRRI
T1 sequence (P09693 23-182, chain 2 of 4): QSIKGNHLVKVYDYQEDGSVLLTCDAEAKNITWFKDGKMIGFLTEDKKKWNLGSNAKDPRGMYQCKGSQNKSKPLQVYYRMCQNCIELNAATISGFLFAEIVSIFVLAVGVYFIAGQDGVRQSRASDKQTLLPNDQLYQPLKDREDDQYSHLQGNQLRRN
T1 sequence (P04234 22-171, chain 3 of 4): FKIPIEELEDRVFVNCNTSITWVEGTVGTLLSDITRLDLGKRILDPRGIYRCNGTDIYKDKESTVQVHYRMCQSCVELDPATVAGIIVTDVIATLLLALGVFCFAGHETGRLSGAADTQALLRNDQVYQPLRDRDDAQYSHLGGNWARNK
T1 sequence (P20963 22-164, chain 4 of 4): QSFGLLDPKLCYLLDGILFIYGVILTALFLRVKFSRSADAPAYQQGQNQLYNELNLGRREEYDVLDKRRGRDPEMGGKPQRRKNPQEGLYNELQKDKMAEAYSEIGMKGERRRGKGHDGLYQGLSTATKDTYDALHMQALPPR

Binder	binding result
bispecific antibody PR002883 targeting B7H4xCD3 (bispecific antibody, asymmetric three-chain structure, LALAPG; SDS-PAGE purity 70% after one-step purification; also called B7H4×CD3 bispecific antibody) heavy 1: QAVVTQEPSLTVSPGGTVTLTCRSSTGAVTTSNYANWVQQKPGQAPRGLIGGTNKRAPWTPARFSGSLLGDKAALTLLGAQPEDEAEYFCALWYSNLWVFGGGTKLTVLGGGQSGQGGSGGGGSEVQLVESGGGLVQPGGSLKLSCAASGFTFNTYAMNWVRQASGKGLEWVGRIRSKYNNYATYYADSVKDRFTISRDDSKSTLYLQMNSLKTEDTAVYYCVRHGNFGNSYVSWFAYWGQGTLVTVSSASEPKSSDKTHTCPPCPAPEAAGGPSVFLFPPKPKDTLMISRTPEVTCVVVDVSHEDPEVKFNWYVDGVEVHNAKTKPREEQYNSTYRVVSVLTVLHQDWLNGKEYKCKVSNKALGAPIEKTISKAKGQPREPQVYTLPPCREEMTKNQVSLWCLVKGFYPSDIAVEWESNGQPENNYKTTPPVLDSDGSFFLYSKLTVDKSRWQQGNVFSCSVMHEALHNHYTQKSLSLSPGK heavy 2: EVQLVQSGAEVKKPGASVKVSCKASGYTFTSYWIGWVRQAPGQGLEWIGDIYPGGGYTNYNEKFKGRVTITRDTSTSTAYLELSSLRSEDTAVYYCARLAGSSYRGAMDSWGQGTLVTVSSASTKGPSVFPLAPSSKSTSGGTAALGCLVKDYFPEPVTVSWNSGALTSGVHTFPAVLQSSGLYSLSSVVTVPSSSLGTQTYICNVNHKPSNTKVDKKVEPKSCDKTHTCPPCPAPEAAGGPSVFLFPPKPKDTLMISRTPEVTCVVVDVSHEDPEVKFNWYVDGVEVHNAKTKPREEQYNSTYRVVSVLTVLHQDWLNGKEYKCKVSNKALGAPIEKTISKAKGQPREPQVCTLPPSREEMTKNQVSLSCAVKGFYPSDIAVEWESNGQPENNYKTTPPVLDSDGSFFLVSKLTVDKSRWQQGNVFSCSVMHEALHNHYTQKSLSLSPGK light: DIQMTQSPSSLSASVGDRVTITCKASQGFNKYVAWYQQKPGKAPKLLIYYTSTLQPGVPSRFSGSGSGRDYTLTISSLQPEDFATYYCLQYGDLLYAFGQGTKVEIKRTVAAPSVFIFPPSDEQLKSGTASVVCLLNNFYPREAKVQWKVDNALQSGNSQESVTEQDSKDSTYSLSSTLTLSKADYEKHKVYACEVTHQGLSSPVTKSFNRGEC	binds
bispecific antibody PR002885 targeting ROR1xCD3 (bispecific antibody, human IgG1, kappa, L234A L235A, asymmetric three-chain structure, LALAPG; SDS-PAGE purity 70% after one-step purification; also called ROR1×CD3 bispecific antibody) heavy 1: QAVVTQEPSLTVSPGGTVTLTCRSSTGAVTTSNYANWVQQKPGQAPRGLIGGTNKRAPWTPARFSGSLLGDKAALTLLGAQPEDEAEYFCALWYSNLWVFGGGTKLTVLGGGQSGQGGSGGGGSEVQLVESGGGLVQPGGSLKLSCAASGFTFNTYAMNWVRQASGKGLEWVGRIRSKYNNYATYYADSVKDRFTISRDDSKSTLYLQMNSLKTEDTAVYYCVRHGNFGNSYVSWFAYWGQGTLVTVSSASEPKSSDKTHTCPPCPAPEAAGGPSVFLFPPKPKDTLMISRTPEVTCVVVDVSHEDPEVKFNWYVDGVEVHNAKTKPREEQYNSTYRVVSVLTVLHQDWLNGKEYKCKVSNKALGAPIEKTISKAKGQPREPQVYTLPPCREEMTKNQVSLWCLVKGFYPSDIAVEWESNGQPENNYKTTPPVLDSDGSFFLYSKLTVDKSRWQQGNVFSCSVMHEALHNHYTQKSLSLSPGK heavy 2: EVQLVESGGGLVQPGRSLRLSCTASGSDINDYPITWVRQAPGQGLEWIGFINSGGSTWYASWVKGRFTISRDDSKSIAYLQMNSLKTEDTAVYYCARGYSTYYRDFNIWGQGTLVTVSSASTKGPSVFPLAPSSKSTSGGTAALGCLVKDYFPEPVTVSWNSGALTSGVHTFPAVLQSSGLYSLSSVVTVPSSSLGTQTYICNVNHKPSNTKVDKKVEPKSCDKTHTCPPCPAPEAAGGPSVFLFPPKPKDTLMISRTPEVTCVVVDVSHEDPEVKFNWYVDGVEVHNAKTKPREEQYNSTYRVVSVLTVLHQDWLNGKEYKCKVSNKALGAPIEKTISKAKGQPREPQVCTLPPSREEMTKNQVSLSCAVKGFYPSDIAVEWESNGQPENNYKTTPPVLDSDGSFFLVSKLTVDKSRWQQGNVFSCSVMHEALHNHYTQKSLSLSPGK light: DIQMTQSPSSLSASVGDRVTINCQASQSIDSNLAWFQQKPGQPPKLLIYRASNLASGVPDRFSGSGSGTDFTLTISSLEAEDVATYYCLGGVGAVSYRTSFGGGTKVEIKRTVAAPSVFIFPPSDEQLKSGTASVVCLLNNFYPREAKVQWKVDNALQSGNSQESVTEQDSKDSTYSLSSTLTLSKADYEKHKVYACEVTHQGLSSPVTKSFNRGEC	binds

These binders were tested against T1, human CD3 (assay: flow cytometry on recombinant CHOK1 cells overexpressing human CD3).
Text: The flow cytometryFACS was used to analyse the binding of the CD3 antibody to CD3-expressing cells, where the CD3-expressing cells could be: CHOK1 cells overexpressing human CD3 or HEK 293 cells (plasmids encoding the ORF of γ, δ, ε, and ζ chains of human-derived CD3 and plasmids encoding the ORF of α and β chains of human TCR were co-transfected with host cells CHOK1 (ATCC, CCL-61) or HEK293 (ATCC, CRL-1573) to construct stable cell lines expressing the structure of the human TCR/CD3 complex); CHOK1 or HEK293 cells overexpressing cynomolgus monkey CD3; human pan-T cells (isolated with the human pan-T cell isolation kit (Miltenyi, #130-096-535) from PBMC); cynomolgus monkey pan-T cells. Specifically, the collected cells were washed twice with PBS containing 2% FBS (FACS buffer), and resuspended with FACS buffer, divided into 96 well plates with 1×10⁵ cells per well, centrifuged at 500 g for 5 minutes. The supernatant was discarded, and 100 μl of pre-gradient diluted CD3 antibody was added, then incubating for 1 hour at room temperature and washing twice with FACS buffer. […] The fluorescent luminescence signal value were read by flow cytometry (BD FACS CANTOII or ACEA NovoCyte), and the resulted data were processed and analyzed by software FlowJo v10 (FlowJo, LLC). […]

Binder	binding result
SP34 murine-human chimeric recombinant antibody PR000260 (antibody, human IgG1, lambda, L234A L235A, V domains shown, IgG1 LALA, lambda; made in HEK293; also called SP34 chimeric antibody; PR000260(SP34)) VH: EVQLVESGGGLVQPKGSLKLSCAASGFTFNTYAMNWVRQAPGKGLEWVARIRSKYNNYATYYADSVKDRFTISRDDSQSILYLQMNNLKTEDTAMYYCVRHGNFGNSYVSWFAYWGQGTLVTVSA VL: QAVVTQESALTTSPGETVTLTCRSSTGAVTTSNYANWVQEKPDHLFTGLIGGTNKRAPGVPARFSGSLIGDKAALTITGAQTEDEAIYFCALWYSNLWVFGGGTKLTVLG	binds

Each binder was assayed against T1, human CD3 (assay: flow cytometry on human pan-T cells; MFI at 7.4 or 10 µg/ml relative to PR000260).
Text: The flow cytometryFACS was used to analyse the binding of the CD3 antibody to CD3-expressing cells, where the CD3-expressing cells could be: CHOK1 cells overexpressing human CD3 or HEK 293 cells (plasmids encoding the ORF of γ, δ, ε, and ζ chains of human-derived CD3 and plasmids encoding the ORF of α and β chains of human TCR were co-transfected with host cells CHOK1 (ATCC, CCL-61) or HEK293 (ATCC, CRL-1573) to construct stable cell lines expressing the structure of the human TCR/CD3 complex); CHOK1 or HEK293 cells overexpressing cynomolgus monkey CD3; human pan-T cells (isolated with the human pan-T cell isolation kit (Miltenyi, #130-096-535) from PBMC); cynomolgus monkey pan-T cells. Specifically, the collected cells were washed twice with PBS containing 2% FBS (FACS buffer), and resuspended with FACS buffer, divided into 96 well plates with 1×10⁵ cells per well, centrifuged at 500 g for 5 minutes. The supernatant was discarded, and 100 μl of pre-gradient diluted CD3 antibody was added, then incubating for 1 hour at room temperature and washing twice with FACS buffer. The cells were resuspended with FACS buffer diluted with secondary antibody Alexa Fluor 488 AffiniPure Goat Anti-Human IgG, Fcγ fragment specific (Jackson ImmunoResearch, #109-545-098), then incubated at room temperature in the dark for 30 minutes. The cells were washed twice with FACS buffer, and resuspended with 200 μl FACS buffer. The fluorescent luminescence signal value were read by flow cytometry (BD FACS CANTOII or ACEA NovoCyte), and the resulted data were processed and analyzed by software FlowJo v10 (FlowJo, LLC). The software GraphPad Prism 8 was used for data processing and graphical analysis, and parameters such as binding curves and EC50 values can be obtained by four-parameter nonlinear fitting.
FIG. 7(A) to (G) show the binding ability of the CD3 antibodies obtained in the Example 4.2 (including PR000260 and its mutants) to human pan-T cells, respectively. The fluorescence intensity MFI of the CD3 antibody binding to human pan-T cells and the relative ratio relative to the initial antibody PR000260 were calculated when the antibody concentration was 7.4 or 10 μg/ml.

Binder	binding result
PR002835 (antibody, human IgG1, lambda, L234A L235A, V domains shown, humanized SP34 variant, IgG1 LALAPG; also called VH3236/VL7461 IgG) VH: EVQLLESGGGLVQPGGSLRLSCAASGFTFSTYAMNWVRQAPGKGLEWVSRIRSKYNNYATYYADSVKDRFTISRDNSKSTLYLQMNSLRAEDTAVYYCARHGNFGNSYVSWFAYWGQGTLVTVSS VL: QAVVTQEPSLTVSPGGTVTLTCRSSTGAVTTSNYANWVQQKPGQAPRGLIGGTNKRAPWTPARFSGSLLGDKAALTLLGAQPEDEAEYFCALWYSNLWVFGGGTKLTVLG	binds
PR000513 (antibody, human IgG1, kappa, L234A L235A, V domains shown, humanized SP34 variant, IgG1 LALA; also called VH3231/VK1393 IgG) VH: EVQLLESGGGLVQPGGSLRLSCAASGFTFNTYAMNWVRQAPGKGLEWVSRIRSKYNNYATYYADSVKDRFTISRDDSKSTLYLQMNSLRAEDTAVYYCVRHGNFGNSYVSWFAYWGQGTLVTVSS VL: DAQMTQSPSSLSASVGDRVTITCRSSTGAVTTSNYANWVQQKPGKAPKGLIGGTNKRAPGVPSRFSGSLSGDDATLTISSLQPEDFATYFCALWYSNLWVFGGGTKVEIKR	binds
